Patent US20030166864A1 (Human Genome Sciences, published 2003)

Molecular target: T1, TACI-Fc fusion protein (transmembrane activator and CAML-interactor fused to Fc) (Homo sapiens (Human), UniProt O14836 1-159)
T1 construct: also called TACI-FC protein; Full-length TACI-Fc; not shown: Fc part from the vector pC4-Fc
T1 sequence: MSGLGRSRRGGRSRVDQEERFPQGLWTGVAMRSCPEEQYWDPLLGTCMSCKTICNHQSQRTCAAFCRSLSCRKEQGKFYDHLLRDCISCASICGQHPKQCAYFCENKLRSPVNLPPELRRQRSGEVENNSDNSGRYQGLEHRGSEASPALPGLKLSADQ
Experiment: BIAcore (SPR), TACI-Fc amine-coupled to a CM5 chip, TNF-epsilon in flow
Procedure: BIAcore analysis was performed essentially as follows. TACI-FC protein was immobilized to the BIAcore sensor chip (CM5 chip) via amine groups using N-ethyl-N′-(dimethlaminopropyl)carbodiimide/N-hydroxysuccinimide chemistry. Various dilutions of TNF-epsilon or other TNF ligands were flowed over the receptor-derivatized flow cells at a rate of 15 microliters per minute for a total volume of 50 microliters. The amount of bound protein was determined during washing of the flow cell with HBS buffer (10 mM HEPES, pH 7.4, 150 mM NaCl, 3.4 mM EDTA, 0.005% Surfactant P20). Binding specificity of TNF-epsilon to TACI was determined by competition with soluble competitor. The flow cell surface was regenerated by displacing bound protein by washing with 20 microliters of 10 mM glycine-HCl, pH=2.3.

B1: TNF-epsilon (purified, trimeric form isolated by size exclusion chromatography) (ligand)
chain: AVLTQKQKNDSDVTEVMWQPALRRGRGLQAQGYGVRIQDAGVYLLYSQVLFQDVTFTMGQVVSREGQGRQETLFRCIRSMPSHPDRAYNSCYSAGVFHLHQGDILSVIIPRARAKLNLSPHGTFLGFVKL
With B1 the Kd was 6 nM.
